Paper PMC10710061

B1: ZnF domain of Arabidopsis thaliana SPL5, residues 60 to 127 (domain or fragment)
chain: SRLCQVDRCTVNLTEAKQYYRRHRVCEVHAKASAATVAGVRQRFCQQCSRFHELPEFDEAKRSCRRRL

How the values were obtained:
[1] = biological target: ZnF domain of Arabidopsis thaliana SPL5, residues 60 to 127 (Arabidopsis thaliana) (UniProt Q9S758); test: ITC; 200 μM SAP05 from the syringe into 20 μM SPL5^ZnF in the cell; 25 °C, 20 mM HEPES pH 7.5, 150 mM NaCl; one-site binding model
[2] = biological target: SAP05 D66E (purified, for ITC) (Aster Yellows phytoplasma strain Witches Broom (AYWB)); test: ITC; SPL5^ZnF from the syringe (250 μM for wild-type SAP05, 200 μM for the SAP05–Rpn10^vWA complex or SAP05 mutants) into 20 μM partner in the cell; 25 °C, 20 mM HEPES pH 7.5, 150 mM NaCl; one-site binding model
[3] = biological target: SAP05 H58A T60W (purified, for ITC) (Aster Yellows phytoplasma strain Witches Broom (AYWB)); test: as above
[4] = biological target: SAP05 of Aster Yellows phytoplasma strain Witches Broom (AYWB), residues 33 to 135 (Aster Yellows phytoplasma strain Witches Broom (AYWB)); test: as above
[5] = biological target: SAP05–Rpn10^vWA complex (Aster Yellows phytoplasma strain Witches Broom (AYWB) | Arabidopsis thaliana) (UniProt P55034); test: as above

Molecule | Kd [1] [nM] | stoichiometry N [1] | Kd [2] [nM] | Kd [3] [nM] | Kd [4] [nM] | Kd [5] [nM] | stoichiometry N [5]
SAP05 of Aster Yellows phytoplasma strain Witches Broom (AYWB), residues 33 to 135 (natural protein) | 450 | 1 | – | – | – | – | –
B1 | – | – | 17700 | 3600 | 520 | 650 | 1
